Experimental data taken from patent US20220340635A1, “FUSION PROTEIN FOR TREATMENT OF METABOLIC DISEASE” (ZHEJIANG DOER BIOLOGICS CORPORATION, priority 2019, published 2022).
Like-named read-outs stand apart in the source and are kept apart here.

Experiments:
FGF21 signaling pathway = test: FGF21 cell-based bioactivity assay, luciferase reporter in HEK293T cells transfected with GAL4DBD-ELK1 and KLB (β-klotho); details: Table 4, 6 h
From the text: The puromycin resistance gene pac was amplified by PCR and cloned into pcDNA3.1(+) to replace the original G418 resistance gene. The GAL4DBD-ELK1, IRES. and KLB (β-klotho) genes were amplified by PCR and cloned into the pcDNA-Puro plasmid in sequence to construct the plasmid pcDNA-GAL4DBD-ELK1-IRES-KLB-Pero for cell transfection and screening. The constructed recombinant plasmid and the pFR-Luc plasmid (Agilent) were extracted by Omega E.Z.N.A.® Endo-Free Plasmid Midi Kit for future use. The cell transfection process was as follows: HEK293T cells were plated 3×10^5 cells per well in a 6-well plate and cultured overnight.
After washing the cells twice with Opti-MEM medium, 2 ml Opti-MEM medium was added. Cell transfection reagent was prepared according to the following proportion: Lipofectamine 2000 (6 μl ): pFR-Luc (4.6 μg): pcDNA-GAL4DBD-ELK1-IRES-KLB-Pura (1 μg). […]
The cells were digested with pancreatin to prepare a cell suspension (1×10^5 cells/ml, DMEM+5% FBS+1 μg/ml puromycin) after reaching confluence in the dish, followed by plating in a 96-well plate (100 μl per well), and culturing overnight. Samples of gradient concentrations were added and cultured for 6 h before fluorescence detection by the Luciferase Reporter Assay Kit (Lucifersae reporter kit, Ray Biotech, Cat:68-LuciR-S200).

[1] = mouse, in vivo; cited from earlier work
[2] = monkey, in vivo; cited from earlier work

EC50 (FGF21 signaling pathway): 0.12 nM
B1: Natural FGF21: natural fibroblast growth factor 21, SEQ ID NO.87 (protein)
chain: HPIPDSSPLLQFGGQVRQRYLYTDDAQQTEAHLEIREDGTVGGAADQSPESLLQLKALKPGVIQILGVKTSRFLCQRPDGALYGSLHFDPEACSFRELLLEDGYNVYQSEAHGLPLHLPGNKSPHRDPAPRGPARFLPLPGLPPALPEPPGILAPQPPDVGSSDPLSMVGPSQGRSPSYAS
modifications: Amino acid sequence of natural FGF21
Serum half-life [1]: 0.5 h | Serum half-life [2]: 2 h
